Measured values as given in article PMC5777782, “Dimeric and tetrameric forms of muscle fructose-1,6-bisphosphatase play different roles in the cell” (Oncotarget, 2017).
Where a chain is given by its changes, count along the chain named. One block for each compound: values may come before it.

Tests used:
[1] = molecular target: T1, Muscle fructose-1,6-bisphosphatase (FBP2), D187L mutant (Homo sapiens, UniProt O00757, D188L); assay: coupled enzyme activity assay; oligomerization by sedimentation velocity ultracentrifugation; type: biochemical
T1 construct: tag-free FBP2, expressed in E. coli
T1 sequence (O00757 2-339 D188L): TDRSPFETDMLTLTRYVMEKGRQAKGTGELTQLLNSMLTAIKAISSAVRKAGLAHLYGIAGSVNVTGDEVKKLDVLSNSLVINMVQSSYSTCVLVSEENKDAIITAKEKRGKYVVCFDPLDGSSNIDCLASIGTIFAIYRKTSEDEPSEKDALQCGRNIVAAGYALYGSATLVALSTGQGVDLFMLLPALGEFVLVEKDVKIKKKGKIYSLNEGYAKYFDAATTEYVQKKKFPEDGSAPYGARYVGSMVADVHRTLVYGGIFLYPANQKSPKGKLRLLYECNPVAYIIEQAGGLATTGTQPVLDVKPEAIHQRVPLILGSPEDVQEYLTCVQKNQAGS

[2] = molecular target: T2, Muscle fructose-1,6-bisphosphatase (FBP2), wild-type (Homo sapiens, UniProt O00757); assay: coupled glucose 6-phosphate isomerase/glucose 6-phosphate dehydrogenase activity assay; AMP-induced tetramerization by sedimentation velocity ultracentrifugation; type: biochemical
T2 construct: tag-free WT FBP2, expressed in E. coli
T2 sequence (O00757 2-339): T1 sequence (O00757 2-339 D188L) with L187D

[3] = molecular target: T3, Muscle fructose-1,6-bisphosphatase (FBP2), L190G mutant (Homo sapiens, UniProt O00757, L191G); assay: coupled enzyme activity assay, biphasic inhibition (second phase IC50 […]); type: biochemical
T3 construct: tag-free FBP2, expressed in E. coli
T3 sequence (O00757 2-339 L191G): T1 sequence (O00757 2-339 D188L) with L187D, L190G

[4] = molecular target: human FBP2 D187L mutant (human); assay: AUC; sedimentation velocity, laser interferometry, 42,000 rpm, 20°C, protein at 0.5 mg/ml, with 5 mM AMP
[5] = molecular target: human FBP2 D187L mutant (human); assay: AUC; sedimentation velocity, laser interferometry, 42,000 rpm, 20°C, protein at 0.5 mg/ml, with 120 μM AMP
[6] = molecular target: human FBP2 D187L mutant (human); assay: AUC; sedimentation velocity, laser interferometry, 42,000 rpm, 20°C, protein at 0.1, 0.5 and 1 mg/ml, without AMP; distribution of monomers, dimers and tetramers
[7] = molecular target: human FBP2 L190G mutant (human); assay: AUC; sedimentation velocity, laser interferometry, 42,000 rpm, 20°C, protein at 0.5 mg/ml, with 5 mM AMP
[8] = molecular target: human FBP2 L190G mutant (human); assay: AUC; sedimentation velocity, laser interferometry, 42,000 rpm, 20°C, protein at 0.5 mg/ml, with 120 μM AMP
[9] = molecular target: human FBP2 L190G mutant (human); assay: AUC; sedimentation velocity, laser interferometry, 42,000 rpm, 20°C, protein at 0.5 mg/ml, with 0.16 μM AMP
[10] = molecular target: human FBP2 L190G mutant (human); assay: AUC; sedimentation velocity, laser interferometry, 42,000 rpm, 20°C, protein at 0.1, 0.5 and 1 mg/ml, without AMP; distribution of monomers, dimers and tetramers

IC50 [1]: 1.44 ± 0.06 µM | IC50 [2]: 0.59 ± 0.01 µM | IC50 [3]: 84.4 ± 6.73 µM
Compound: Nc1ncnc2c1ncn2[C@@H]1O[C@H](COP(=O)(O)O)[C@@H](O)[C@H]1O [AMP]

percent tetrameric [4]: 35% | percent tetrameric [5]: 45% | percent dimeric [6]: 83.4% | stoichiometry N [6]: 2
Compound: human FBP2 D187L mutant (enzyme)

stoichiometry N [7]: 2 | stoichiometry N [8]: 2 | stoichiometry N [9]: 2 | percent dimeric [10]: 91.2% | stoichiometry N [10]: 2
Compound: human FBP2 L190G mutant (enzyme)
